Several values for one entry are separate records, joined by “and”; a condition that tells them apart may be missing. Identical values can stand only once.
System: O=C(Cc1cccs1)N[C@@H]1C(=O)N2C(C(=O)O)=C(/C=C/c3ccc([N+](=O)[O-])cc3[N+](=O)[O-])CS[C@H]12
Test: purified protein, by the assay type

Substance	Km	kcat	kcat/Km
(Acinetobacter baumannii)	62 µM and 28 µM and 34 µM	357 s⁻¹ and 208 s⁻¹ and 518 s⁻¹	5.8e+06 M⁻¹ s⁻¹ and 7.6e+06 M⁻¹ s⁻¹ and 1.5e+07 M⁻¹ s⁻¹
(Enterobacter cloacae)	100 µM	479 s⁻¹	4.8e+06 M⁻¹ s⁻¹
(Escherichia coli)	22 µM and 24 µM	334 s⁻¹ and 341 s⁻¹	1.5e+07 M⁻¹ s⁻¹
(Klebsiella pneumoniae)	29 µM	406 s⁻¹	1.4e+07 M⁻¹ s⁻¹
(Pseudomonas aeruginosa PAO1)	55 µM	133 s⁻¹	2.4e+06 M⁻¹ s⁻¹
(Serratia marcescens)	26 µM	229 s⁻¹	8.9e+06 M⁻¹ s⁻¹
